Data reported in patent US20140294828A1 (COMPLIX, published 2014).

T1: bL4_C36 (biotin-GSGS-C36-NH2, HIV-1 HXB2 Env gp41 HR2 peptide) (HIV-1 (HXB2 strain), N-terminal biotin; C-terminal amide)
T1 construct: also called C-peptide
T1 peptide: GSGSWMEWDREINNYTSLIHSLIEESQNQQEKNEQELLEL

B1: single-chain Alphabody scAB_Env03 (designed binder)
chain: MGHHHHHHHHHHSSGHIEGRHMSIEEIQKPIATIQEAIAWIQKKIYMMTGGSGGGSGGGSGGGSGMSIEEIQKQIAAIQKQIAAIQKQIYAMTGGSGGGSGGGSGGGSGMSIEEIQKQIVAIMEQIVAIVKQISAMTP
notes: expressed soluble in E. coli with an N-terminal His10 tag; not shown: N-terminal 10-histidine tag from pET16b
B2: single-chain Alphabody scAB_Env02 (designed binder)
chain: MGHHHHHHHHHHSSGHIEGRHMSIEEIQKPIASIQELIATIQKYIYIMTGGSGGGSGGGSGGGSGMSIEEIQKQIAAIQKQIAAIQKQIYAMTGGSGGGSGGGSGGGSGMSIEEIQKQIQAITEQIIAISKQIIAMTP
notes: Soluble construct with N-terminal His10 tag (pET16b)
B3: single-chain Alphabody scAB_Env05 (designed binder)
chain: MGHHHHHHHHHHSSGHIEGRHMSIEEIQKHIASIQEYIAWIQKEIYRMTGGSGGGSGGGSGGGSGMSIEEIQKQIAAIQKQIAAIQKQIYAMTGGSGGGSGGGSGGGSGMSIEEIQKQILAIMEQIYAIVKQINAMTP
notes: as for B2
B4: single-chain Alphabody scAB_Env03_KC (designed binder)
chain: MGHHHHHHHHHHSSGHIEGRHMSIEEIQKPIATIQEAIAWIQKKIYMMTGGSGGGSGGGSGGGSGMSIEEIQKQIAAIQCQIAAIQKQIYAMTGGSGGGSGGGSGGGSGMSIEEIQKQIVAIMEQIVAIVKQISAMTP
modifications: Interchain disulfide between Cys80 of chain 1 and Cys80 of chain 2 (homodimer; paragraph 268, and FIG.11 prints 'scAB_Env03_KC (dimer)').
notes: also called Env03 Cys-mutant
B5: single-chain Alphabody scAB_Env03_PA (designed binder)
chain: MGHHHHHHHHHHSSGHIEGRHMSIEEIQKAIATIQEAIAWIQKKIYMMTGGSGGGSGGGSGGGSGMSIEEIQKQIAAIQKQIAAIQKQIYAMTGGSGGGSGGGSGGGSGMSIEEIQKQIVAIMEQIVAIVKQISAMTP
notes: Made by the same protocol as the parent (N-terminal His10 tag); The substitution has no printed number
B6: single-chain Alphabody scAB_Env04 (designed binder)
chain: MGHHHHHHHHHHSSGHIEGRHMSIEEIQKPIATIQETIAWIQKTIYGMTGGSGGGSGMSIEEIQKQIAAIQKQIAAIQKQIYAMTGGSGGGSGGGSGGGSGMSIEEIQKQIRAIFEQIVAICKQIIAMTP
notes: as for B2

Assays:
[1] = target: T1, bL4_C36 (biotin-GSGS-C36-NH2, HIV-1 …); experiment: SPR, bL4_C36 on streptavidin chip, Langmuir model
[2] = target: T1, bL4_C36 (biotin-GSGS-C36-NH2, HIV-1 …); experiment: SPR, bL4_C36 immobilized on a streptavidin sensor chip, Alphabody injected at 250 to 7.8 nM, Langmuir model (phase 1)
[3] = target: T1, bL4_C36 (biotin-GSGS-C36-NH2, HIV-1 …); experiment: ELISA, peptide on neutravidin-coated plate, Penta-His-HRP detection
[4] = target: T1, bL4_C36 (biotin-GSGS-C36-NH2, HIV-1 …); experiment: ELISA, bL4_C36 immobilized on neutravidin-coated plates, detection with Penta-His-HRP antibody, A450nm
[5] = target: T1, bL4_C36 (biotin-GSGS-C36-NH2, HIV-1 …); experiment: SPR, bL4_C36 on streptavidin chip; disulfide dimer, bidentate binding
[6] = target: T1, bL4_C36 (biotin-GSGS-C36-NH2, HIV-1 …); experiment: SPR, bL4_C36 immobilized on a streptavidin sensor chip, two-step kinetic binding model, phase 1
[7] = target: T1, bL4_C36 (biotin-GSGS-C36-NH2, HIV-1 …); experiment: SPR, bL4_C36 immobilized on a streptavidin sensor chip, two-step kinetic binding model, phase 2 (dimensionless)
[8] = target: T1, bL4_C36 (biotin-GSGS-C36-NH2, HIV-1 …); experiment: SPR, bL4_C36 immobilized on a streptavidin sensor chip, two-step kinetic binding model, global constant of phases 1+2 (KD1*KD2)
[9] = target: T1, bL4_C36 (biotin-GSGS-C36-NH2, HIV-1 …); experiment: SPR, two-step model, second phase
[10] = target: T1, bL4_C36 (biotin-GSGS-C36-NH2, HIV-1 …); experiment: SPR, two-step model, global KD
[11] = target: T1, bL4_C36 (biotin-GSGS-C36-NH2, HIV-1 …); experiment: SPR, two-step model, first fast association phase

Binder	Kd [1] [nM]	Kd [2] [nM]	EC50 (read off the curve) [4] [nM]	koff [2] [s⁻¹]	kon [2] [M⁻¹ s⁻¹]	other results
B1	200	211	~5			EC50 [3]: ~6 nM
B2			~20			
B3	4000	3930	~40	0.32	81000	
B4						Kd [5]: 0.62 nM; koff [5]: 2.4e-05 s⁻¹; kon [5]: 38000 M⁻¹ s⁻¹
B5						KD (phase 1) [6]: 558 nM; KD (phase 2) [7]: 0.024 (-); Kd [8]: 13 nM; koff [9]: ~0.0001 s⁻¹; Kd [10]: ~10 nM; kon [11]: ~100000 M⁻¹ s⁻¹
B6	200	167	~20	0.1	570000	
